The source of these data is patent EP4688860A2 (dated 2026).

The assay deals with T1, human CD38 on cells (human CD38-overexpressing Jurkat cells); CD38-expressing MM.1R, THP-1 and MM.1S target … (human, UniProt P28907 1-300).
T1 construct: also called CD38+ cells
Briefly: summing-up sentence of the examples (cell binding, SPR, CAR format).

B1: anti-CD38 scFv of SEQ ID NO:111 (scFv)
scFv: EAQLLESGGDLVQPGGSLRLSCAASGFTFSSYAMSWVRQAPGKGLEWVSTISVSGDSTYYADSVKGRFTISRDNSKNTLYLQMNSLRAEDTAVYYCAKALLYQGLRMDVWGKGTTVTVSSGGGGSGGGGSGGGGSDIQMTQSPSSLSASVGDRVTITCRASQGIATWLAWYQQKPEKAPKSLIYAASSLQSGVPSRFSGSGSGTDFTLSISSLQPEDFATYYCQQYNSYPLTFGGGTKVEIK
notes: One of the 12 selected scFvs; Also tested inside a CAR
As to B1, the binding result is recorded as “binds”.

B2: anti-CD38 scFv of SEQ ID NO:108 (scFv)
scFv: EVQLLESGGGLVQPGGSLRLSCAASGFTFSSYAMTWVRQAPGKGLEWVSAISPSGGSTFYADSVKGRFTISRDNSKNTLYLEMNSLRAEDTAVYYCAKDLDFYGSGSYSSWGKGTTVTVSSGGGGSGGGGSGGGGSEIVMTQSPATLSLSPGERATLSCRASQSVSNSYLSWYQQKPGQAPRLLIFGTSTRATGIPARFSGSGSGTDFTLTISSLQPEDFAVYHCQQDYKLPYTFGQGTKLEIK
notes: One of the 12 selected fully human scFvs; Also tested inside a CAR (CD8a hinge and transmembrane, OX40, CD3zeta; FLAG tag in Jurkat cells)
As to B2, the binding result is listed as “binds”.

B3: anti-CD38 scFv of SEQ ID NO:112 (scFv)
scFv: QVQLVQSGAEVKKPGASVKVSCKASGFTFTSYGFSWVRQAPGQGLEWMGWISAYSGNTKYAQKFQGRVTMTTDTSTSTAYMELRSLRSDDTAVYYCAREGGTTGTFYYYYYMDVWGKGTTVTVSSGGGGSGGGGSGGGGSEIVLTQSPDFQSVTPKEKVTITCRASQSIGRSLHWYQQKPDQSPKLLIKYASQSFSGVPSRFSGSGSGTDFTLTINSLEAEDAATYYCLQSSSLPLTFGGGTKVEIK
notes: as for B1
As for B3, the binding result is given as “binds”.

B4: anti-CD38 scFv of SEQ ID NO:119 (scFv)
scFv: EVQLLESGGGLVQPGGSLRLSCAASGFTFSNYDMSWVRQAPGKGLEWVSTTSASGGNTYYADSVRGRFTISRDNSKNTLYLQMNSLRAEDTAVYYCAKEGDGYNPFRDHYYYFMDVWGKGTTVTVSSGGGGSGGGGSGGGGSETVMTQSPAALSVSPGERATLSCRASQSVSSNLAWYQQKPGQAPRLLIYGASTRATGIPARFSGSGSGTEFTLTISSLQSEDFAVYYCQQYNNWPPYTFGQGTKLEIK
notes: as for B1
As for B4, the binding result is recorded as “binds”.

B5: anti-CD38 scFv of SEQ ID NO:110 (scFv)
scFv: QVQLVQSGAEVKKPGASVKVSCKASGYTFNRYVISWVRQAPGQGLEWMGWIRAYNGNTNYAQKFQGRVTMTTDTSTSTAYMELRSLRSDDTAVYYCARDSTTGTTEGMDVWGKGTTVTVSSGGGGSGGGGSGGGGSEIVMTQSPATLSLSPGERATLSCRASQSVSSSYLSWYQQKPGQAPRLLIYGASTRATGIPARFSGSGSGTDFTLTISSLQPEDFAVYYCQQDYNLPLTFGGGTKVEIN
notes: as for B1
Take B5: the binding result is listed as “binds”.

B6: anti-CD38 scFv of SEQ ID NO:109 (scFv)
scFv: EGQLLESGGGLVQPGGSLRLSCAASGFTFSSFAMSWVRQAPGKGLEWVSTISGSGGSTNYADSVKGRFTISRDNSKKTLYLQMSSLRAEDTAVFYCAKGPTSPYSYYMDVWGKGTTVTVSSGGGGSGGGGSGGGGSEIVMTQSPATLSLSPGERATLSCRASQSVSSSFLSWFQQKPGQAPRLLIYGASTRATGIPARFSGSGSGTDFTLTISSLQPEDFAVYYCQQDYNLPYTFGQGTKLEIK
notes: as for B1
On to B6, for which the binding result was “binds”.

B7: anti-CD38 scFv of SEQ ID NO:116 (scFv)
scFv: EVQLVESGGGVVRPGGSLRLSCAASGFTFDDYGMSWVRQAPGKGLEWVSGINWNGGSTDYAASVKGRFTISRDNAKNSLYLQMNSLRAEDTALYHCARVFCTNGVCYPYSYYYFMDVWGKGTTVTVSSGGGGSGGGGSGGGGSEIVMTQSPATLSVSPGERATLSCRASQSVSSNLAWYQQKPGQAPRLLTYGASTRATGIPARFSGSGSGTEFTLTISSLQSEDFAVYYCQQYNNWPYTFGQGTRLEIK
notes: as for B1
Consider B7, for which the binding result is “binds”.

B8: anti-CD38 scFv of SEQ ID NO:117 (scFv)
scFv: EVQLVESGGGVVRPGGSLRLSCAASGFTFDDYGMSWVRQAPGKGLEWVSGINWNGGSTGYADSVKGRFTISRDNAKNSLYLQMNSLRAEDTAFYHCAREGDGYKGTFYYYYYMDVWGKGTTVTVSSGGGGSGGGGSGGGGSDIQLTQSPSFLSASVGDRVTITCRASQGIFNYLAWYQQKPGKAPNLLIYAASNLQSGVPSRFSGSGSGTEFTLTISSLQPEDFATYYCQQLNSYPLTFGGGTKVEIK
notes: as for B1
For the molecule B8, the binding result was “binds”.
